Laboratory results reported in the supplement of paper PMC7877785.
± gives the uncertainty stated by the source.

Assay: self-splicing fitness, log relative to wild type (ln ratio); higher = more splicing; Tetrahymena group I intron in knt gene, E. coli kanamycin selection, DiMSum; sequences stand for … in CUCUCU…GGAGGGAAAAGUUAUCAGGCAUGCACCUGGUAGCUAGUCUUUAAACCAAUAGAUUGCAUCGGUUUAAAAGGCAAGACCGUCAAAUUGCGGGAAAGGGGUCAACAGCCGUUCAGUACCAAGUCUCAGGGGAAACUUUGAGAUGGCCUUGCAAAGGGUAUGGUAAUAAGCUGACGGACAUGGUCCUAACCACGCAGCCAAGUCCUAAGUCAACAGAUCUUCUGUUGAUAUGGAUGCAGUUCACAGACUAAAUGUCGGUCGGGGAAGAUGUAUUCUUCUCAUAAGAUAUAGUCGGACCUCUCCUUAAUGGGAGCUAGCGGAUGAAGUGAUGCAACACUGGAGCCGCUGGGAACUAAUUUGUAUGCGAAAGUAUAUUGAUUAGUUUUGGAGUACUCGUGGUCG
Outline: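 DiMSum derived fitness as the error-weighted combination of fold changes across replicates, kanamycin versus no kanamycin, normalised to wild type. E. coli BL21(DE3) held the library, which randomised all eight P1ex-region intron nucleotides within the knt kanamycin-resistance gene on pET-22b(+). Six replicate transformations grew overnight at 37°C or 30°C on LB agar with or without 25 μg/mL kanamycin, also containing 100 μg/mL carbenicillin, 50 μM IPTG and 0.2% rhamnose, and pooled colonies were amplicon-sequenced on an Illumina HiSeq 2500.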

Sequence	self-splicing fitness (ln) (30 °C)	self-splicing fitness (ln) (37 °C)
CUUUAGCAAUAUUACGCUGC	-3.39 ± 0.38	0.317 ± 0.36
CUUUAGCAAUAUUACGGCGC	-2.73 ± 0.37	–
CUUUAGCAAUAUUACGGGCC	-3.32 ± 0.16	-2.64 ± 0.21
CUUUAGCAAUAUUACGGGUA	-3.97 ± 0.47	-2.56 ± 0.21
CUUUAGCAAUAUUACGGUUA	-3.31 ± 0.28	-3.19 ± 0.37
CUUUAGCAAUAUUACGGUUC	-3.33 ± 0.3	-2.83 ± 0.29
CUUUAGCAAUAUUACGUAAC	–	-1.64 ± 0.37
CUUUAGCAAUAUUACGUAAG	-0.953 ± 0.081	-0.626 ± 0.11
CUUUAGCAAUAUUACGUCAU	-4.6 ± 0.39	-2.13 ± 0.23
GAAAAGCAAUAUUACGAAGU	-2.98 ± 0.18	-0.976 ± 0.2
GAAAAGCAAUAUUACGACCU	-0.497 ± 0.13	-1.42 ± 0.12
GAAAAGCAAUAUUACGACGA	-0.234 ± 0.09	-0.0451 ± 0.096
GAAAAGCAAUAUUACGCAUA	-1.72 ± 0.093	-0.672 ± 0.083
GAAAAGCAAUAUUACGCCAG	-2.72 ± 0.21	-2.28 ± 0.32
GAAAAGCAAUAUUACGCGUC	-4.29 ± 0.27	-2.78 ± 0.24
GAAAAGCAAUAUUACGCUCG	-0.762 ± 0.11	-0.303 ± 0.15
GAAAAGCAAUAUUACGGAAC	-2.14 ± 0.13	-1.25 ± 0.15
GAAAAGCAAUAUUACGGAAU	-2.81 ± 0.13	-1.07 ± 0.1
GAAAAGCAAUAUUACGGAGG	-2.71 ± 0.14	-1.73 ± 0.18
GAAAAGCAAUAUUACGGGCG	-1.32 ± 0.071	-0.282 ± 0.1
GAAAAGCAAUAUUACGGGGC	-2.89 ± 0.16	-3.46 ± 0.37
GAAAAGCAAUAUUACGGUUA	-0.324 ± 0.062	-0.0141 ± 0.067
GAAAAGCAAUAUUACGUACG	-1.16 ± 0.061	-0.9 ± 0.079
GAAAAGCAAUAUUACGUAUC	-3.9 ± 0.15	-1.48 ± 0.1
GAAAAGCAAUAUUACGUCAU	-1.82 ± 0.088	-0.42 ± 0.097

Sequence	self-splicing fitness (ln) (30 °C)	self-splicing fitness (ln) (37 °C)
GAAAAGCAAUAUUACGUGGA	-2.96 ± 0.12	-1.89 ± 0.12
GAACAGCAAUAUUACGAAAC	-0.693 ± 0.1	-0.301 ± 0.12
GAACAGCAAUAUUACGAAAU	-1.67 ± 0.12	-0.204 ± 0.14
GAACAGCAAUAUUACGACAG	-3.37 ± 0.18	-2.55 ± 0.17
GAACAGCAAUAUUACGACCC	-0.0445 ± 0.095	0.121 ± 0.11
GAACAGCAAUAUUACGACUU	-0.206 ± 0.072	0.314 ± 0.088
GAACAGCAAUAUUACGAGGG	-3.29 ± 0.22	-1.87 ± 0.22
GAACAGCAAUAUUACGAGGU	-3.08 ± 0.14	-1.71 ± 0.12
GAACAGCAAUAUUACGAUUC	-1.65 ± 0.072	-1.21 ± 0.11
GAACAGCAAUAUUACGAUUG	-1.62 ± 0.082	-1.26 ± 0.11
GAACAGCAAUAUUACGCAUA	-0.914 ± 0.079	-0.68 ± 0.094
GAACAGCAAUAUUACGCAUU	-1.67 ± 0.095	-0.812 ± 0.12
GAACAGCAAUAUUACGCCCC	-1.22 ± 0.25	-0.835 ± 0.47
GAACAGCAAUAUUACGCCCG	-2.49 ± 0.22	-0.797 ± 0.2
GAACAGCAAUAUUACGCGGU	-3.6 ± 0.19	-2.82 ± 0.21
GAACAGCAAUAUUACGCGUA	-0.925 ± 0.072	-0.411 ± 0.07
GAACAGCAAUAUUACGGCUU	-0.492 ± 0.064	0.239 ± 0.087
GAACAGCAAUAUUACGGGAG	-2.06 ± 0.086	-1.47 ± 0.097
GAACAGCAAUAUUACGGGCG	-1.68 ± 0.086	-0.0108 ± 0.097
GAACAGCAAUAUUACGGUAG	-2.81 ± 0.12	-1.87 ± 0.14
GAACAGCAAUAUUACGGUUC	-3 ± 0.14	-2.93 ± 0.22
GAACAGCAAUAUUACGUAAC	-1.12 ± 0.082	-0.127 ± 0.1
GAACAGCAAUAUUACGUACG	-0.821 ± 0.081	-0.0209 ± 0.11
GAACAGCAAUAUUACGUAUU	-1.57 ± 0.063	-0.99 ± 0.075
GAACAGCAAUAUUACGUCAU	-0.993 ± 0.069	-0.47 ± 0.084

Sequence	self-splicing fitness (ln) (30 °C)	self-splicing fitness (ln) (37 °C)
GAACAGCAAUAUUACGUCUU	-0.598 ± 0.07	0.229 ± 0.089
GAACAGCAAUAUUACGUGAC	-1.63 ± 0.11	-0.482 ± 0.15
GAACAGCAAUAUUACGUUGG	-2.51 ± 0.08	-1.94 ± 0.1
GAAGAGCAAUAUUACGAACA	-2.15 ± 0.23	-1.54 ± 0.25
GAAGAGCAAUAUUACGAGGC	–	-1.8 ± 0.41
GAAGAGCAAUAUUACGAUUA	-2.33 ± 0.23	-1.85 ± 0.17
GAAGAGCAAUAUUACGCCAG	–	-0.627 ± 0.38
GAAGAGCAAUAUUACGCCAU	–	-1.61 ± 0.37
GAAGAGCAAUAUUACGCCUG	-0.984 ± 0.19	-0.756 ± 0.35
GAAGAGCAAUAUUACGCGAC	-3.8 ± 0.36	-1.18 ± 0.18
GAAGAGCAAUAUUACGCUCA	–	-1.33 ± 0.48
GAAGAGCAAUAUUACGCUGC	–	-2.63 ± 0.48
GAAGAGCAAUAUUACGGCGC	-1.12 ± 0.16	-0.427 ± 0.16
GAAGAGCAAUAUUACGGCGG	-3.45 ± 0.2	-2.19 ± 0.27
GAAGAGCAAUAUUACGUGAU	-3.4 ± 0.14	-1.51 ± 0.13
GAAGAGCAAUAUUACGUUGC	-3.04 ± 0.28	-2.25 ± 0.27
GAAUAGCAAUAUUACGAAUG	-1.42 ± 0.24	-1.15 ± 0.28
GAAUAGCAAUAUUACGACCA	-0.287 ± 0.13	-0.616 ± 0.13
GAAUAGCAAUAUUACGACCC	0.178 ± 0.39	–
GAAUAGCAAUAUUACGAGUC	-3.29 ± 0.15	-1.4 ± 0.11
GAAUAGCAAUAUUACGAUAG	-0.707 ± 0.15	-1.47 ± 0.22
GAAUAGCAAUAUUACGCACA	-0.518 ± 0.15	1.18 ± 0.18
GAAUAGCAAUAUUACGCCGU	-1.6 ± 0.1	-0.466 ± 0.11
GAAUAGCAAUAUUACGCUGA	-2.56 ± 0.31	-0.623 ± 0.22
GAAUAGCAAUAUUACGCUUA	-1.5 ± 0.17	-0.146 ± 0.17

Sequence	self-splicing fitness (ln) (30 °C)	self-splicing fitness (ln) (37 °C)
GAAUAGCAAUAUUACGGACG	-1.84 ± 0.16	-0.471 ± 0.22
GAAUAGCAAUAUUACGGAUA	-2.36 ± 0.26	-1.46 ± 0.21
GAAUAGCAAUAUUACGGCGC	0.0238 ± 0.14	0.023 ± 0.16
GAAUAGCAAUAUUACGGUGA	-1.69 ± 0.12	-1.36 ± 0.11
GAAUAGCAAUAUUACGUCUG	-1.85 ± 0.075	-0.674 ± 0.082
GAAUAGCAAUAUUACGUGUG	-2.23 ± 0.07	-1.52 ± 0.073
GAAUAGCAAUAUUACGUUGC	-4.27 ± 0.34	-2.69 ± 0.37
GACAAGCAAUAUUACGAAUU	-1.56 ± 0.063	-1.47 ± 0.099
GACAAGCAAUAUUACGACAG	-4.68 ± 0.22	-2.63 ± 0.14
GACAAGCAAUAUUACGACCU	0.335 ± 0.11	-0.133 ± 0.12
GACAAGCAAUAUUACGAUCC	-2.7 ± 0.22	-2.08 ± 0.34
GACAAGCAAUAUUACGCAAA	-2.04 ± 0.13	-1.81 ± 0.12
GACAAGCAAUAUUACGCAGC	–	-1.7 ± 0.22
GACAAGCAAUAUUACGCAUG	-2.33 ± 0.13	-0.814 ± 0.14
GACAAGCAAUAUUACGCCAG	-3.1 ± 0.3	–
GACAAGCAAUAUUACGCCUU	-1.15 ± 0.14	-1.04 ± 0.13
GACAAGCAAUAUUACGCGCA	-0.282 ± 0.099	-0.0559 ± 0.1
GACAAGCAAUAUUACGCGUA	-1.12 ± 0.072	-0.683 ± 0.078
GACAAGCAAUAUUACGCGUG	-2.54 ± 0.076	-0.344 ± 0.071
GACAAGCAAUAUUACGCUAU	-1.96 ± 0.094	-1.17 ± 0.1
GACAAGCAAUAUUACGGACA	-1.33 ± 0.14	-0.153 ± 0.13
GACAAGCAAUAUUACGGAGA	-2.59 ± 0.18	-1.98 ± 0.14
GACAAGCAAUAUUACGGUUG	-2.3 ± 0.087	-1.15 ± 0.11
